B1: Peroxisome proliferator-activated receptor gamma coactivator 1-alpha (Homo sapiens), Q9UBK2 (parent)
chain: MAWDMCNQDSESVWSDIECAALVGEDQPLCPDLPELDLSELDVNDLDTDSFLGGLKWCSDQSEIISNQYNNEPSNIFEKIDEENEANLLAVLTETLDSLPVDEDGLPSFDALTDGDVTTDNEASPSSMPDGTPPPQEAEEPSLLKKLLLAPANTQLSYNECSGLSTQNHANHNHRIRTNPAIVKTENSWSNKAKSICQQQKPQRRPCSELLKYLTTNDDPPHTKPTENRNSSRDKCTSKKKSHTQSQSQHLQAKPTTLSLPLTPESPNDPKGSPFENKTIERTLSVELSGTAGLTPPTTPPHKANQDNPFRASPKLKSSCKTVVPPPSKKPRYSESSGTQGNNSTKKGPEQSELYAQLSKSSVLTGGHEERKTKRPSLRLFGDHDYCQSINSKTEILINISQELQDSRQLENKDVSSDWQGQICSSTDSDQCYLRETLEASKQVSPCSTRKQLQDQEIRAELNKHFGHPSQAVFDDEADKTGELRDSDFSNEQFSKLPMFINSGLAMDGLFDDSEDESDKLSYPWDGTQSYSLFNVSPSCSSFNSPCRDSVSPPKSLFSQRPQRMRSRSRSFSRHRSCSRSPYSRSRSRSPGSRSSSRSCYYYESSHYRHRTHRNSPLYVRSRSRSPYSRRPRYDSYEEYQHERLKREEYRREYEKRESERAKQRERQRQKAIEERRVIYVGKIRPDTTRTELRDRFEVFGEIEECTVNLRDDGDSYGFITYRYTCDAFAALENGYTLRRSNETDFELYFCGRKQFFKSNYADLDSNSDDFDPASTKSKYDSLDFDSLLKEAQRSLRR
B2: Peroxisome proliferator-activated receptor gamma coactivator 1-alpha (Homo sapiens), Q9UBK2 (parent)
chain: B1 chain
partner: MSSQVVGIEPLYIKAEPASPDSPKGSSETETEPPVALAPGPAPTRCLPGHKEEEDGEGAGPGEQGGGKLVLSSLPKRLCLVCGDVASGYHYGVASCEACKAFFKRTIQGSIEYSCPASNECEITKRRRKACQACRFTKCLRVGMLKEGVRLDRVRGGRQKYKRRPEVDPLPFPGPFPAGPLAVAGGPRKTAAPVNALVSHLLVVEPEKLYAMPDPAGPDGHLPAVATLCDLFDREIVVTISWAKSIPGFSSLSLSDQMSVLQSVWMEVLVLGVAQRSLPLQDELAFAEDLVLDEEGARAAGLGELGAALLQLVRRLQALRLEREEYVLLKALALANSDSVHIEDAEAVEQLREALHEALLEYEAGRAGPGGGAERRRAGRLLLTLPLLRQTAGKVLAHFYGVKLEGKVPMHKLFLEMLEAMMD

Assays:
rxra_human RXRA, P19793 = variants of: B1; conditions: with rxra_human RXRA
esr1_human ESR1, P03372 = variants of: B1; conditions: with esr1_human ESR1, P03372
err1_human ESRRA, P11474 [1] = variants of: B2; conditions: with err1_human ESRRA
err1_human ESRRA, P11474 [2] = variants of: B2; conditions: with err1_human ESRRA; remark: listed apart in the source

Chain of esr1_human ESR1, P03372 (P03372 whole entry): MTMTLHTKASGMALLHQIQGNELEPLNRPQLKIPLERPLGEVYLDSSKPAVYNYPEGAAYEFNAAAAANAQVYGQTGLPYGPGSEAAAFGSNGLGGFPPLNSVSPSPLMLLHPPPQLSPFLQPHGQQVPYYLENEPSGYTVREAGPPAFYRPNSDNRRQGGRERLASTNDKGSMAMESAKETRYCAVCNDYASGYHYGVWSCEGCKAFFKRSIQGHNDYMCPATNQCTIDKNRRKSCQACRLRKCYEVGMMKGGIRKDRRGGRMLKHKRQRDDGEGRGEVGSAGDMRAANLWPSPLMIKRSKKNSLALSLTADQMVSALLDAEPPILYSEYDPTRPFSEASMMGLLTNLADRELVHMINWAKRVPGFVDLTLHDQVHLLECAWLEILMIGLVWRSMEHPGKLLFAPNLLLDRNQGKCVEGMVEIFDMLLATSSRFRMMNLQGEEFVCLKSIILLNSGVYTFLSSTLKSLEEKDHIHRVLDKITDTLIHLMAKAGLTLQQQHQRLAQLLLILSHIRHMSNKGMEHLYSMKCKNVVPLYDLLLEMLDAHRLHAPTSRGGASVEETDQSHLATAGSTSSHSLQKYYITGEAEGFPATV
Chain of rxra_human RXRA, P19793 (P19793 whole entry): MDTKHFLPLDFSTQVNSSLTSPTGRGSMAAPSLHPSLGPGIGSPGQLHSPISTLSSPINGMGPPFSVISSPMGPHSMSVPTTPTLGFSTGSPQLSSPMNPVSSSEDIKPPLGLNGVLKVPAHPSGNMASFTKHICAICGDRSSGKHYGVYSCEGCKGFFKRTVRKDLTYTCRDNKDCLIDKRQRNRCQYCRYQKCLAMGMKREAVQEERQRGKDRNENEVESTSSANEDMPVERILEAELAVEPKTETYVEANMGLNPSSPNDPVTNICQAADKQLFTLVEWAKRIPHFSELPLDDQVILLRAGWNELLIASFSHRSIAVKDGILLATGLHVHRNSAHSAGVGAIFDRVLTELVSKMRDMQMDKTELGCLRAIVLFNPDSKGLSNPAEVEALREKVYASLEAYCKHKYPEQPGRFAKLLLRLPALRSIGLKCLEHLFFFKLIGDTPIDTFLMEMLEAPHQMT

effect of a mutation on the interaction (rxra_human RXRA, P19793) | effect of a mutation on the interaction (esr1_human ESR1, P03372) | effect of a mutation on the interaction (err1_human ESRRA, P11474 [1]) | effect of a mutation on the interaction (err1_human ESRRA, P11474 [2]) | Variant
decreasing interaction strength | with no effect | – | – | L210A;L211A
disrupting interaction strength | disrupting interaction strength | – | – | L147A;L148A;L210A;L211A
disrupting interaction strength | decreasing interaction strength | – | – | L147A;L148A
– | – | decreasing interaction strength | with no effect | L210A;L211A
– | – | disrupting interaction strength | – | L147A;L148A;L210A;L211A
– | – | decreasing interaction strength | with no effect | L147A;L148A

Source: IntAct's records for PubMed 12522104
